Test results published in article PMC4337726, “A molecular basis for the differential roles of Bub1 and BubR1 in the spindle assembly checkpoint” (eLife, 2015).

B1: H6-TRX-BubR1^362–571 (domain or fragment, human, UniProt O60566 362-571, looked up)
chain: INHILSTRKPGKEEGDPLQRVQSHQQASEEKKEKMMYCKEKIYAGVGEFSFEEIRAEVFRKKLKEQREAELLTSAEKRAEMQKQIEEMEKKLKEIQTTQQERTGDQQEETMPTKETTKLQIASESQKIPGMTLSSSVCQVNCCARETSLAENIWQEQPHSKGPSVPFSIFDEFLLSEKKNKSPPADPPRVLAQRRPLAVLKTSESITSNE
notes: source: insect cells, baculovirus, purified (TALON, SEC)

Experiments:
[1] = target: anaphase promoting complex/cyclosome, P30260;Q9UJX3; assay: co-immunoprecipitation (anti-Cdc27 IP), quantified Western blot; conditions: mitotic Flp-In T-REx cell lines; mean of two independent experiments; parent: 1.0; read off a plot
Cdc27 = assay: co-immunoprecipitation (anti-GFP IP), quantified Western blot; conditions: mitotic Flp-In T-REx cell lines; mean of two independent experiments; parent: 1.0; read off a plot
Cdc20 = Cdc20 (UniProt Q12834); assay: as above; conditions: mitotic Flp-In T-REx cell lines; mean of two independent experiments; parent: 1.0; read off a plot
Cdc20, sequence (Q12834 whole entry): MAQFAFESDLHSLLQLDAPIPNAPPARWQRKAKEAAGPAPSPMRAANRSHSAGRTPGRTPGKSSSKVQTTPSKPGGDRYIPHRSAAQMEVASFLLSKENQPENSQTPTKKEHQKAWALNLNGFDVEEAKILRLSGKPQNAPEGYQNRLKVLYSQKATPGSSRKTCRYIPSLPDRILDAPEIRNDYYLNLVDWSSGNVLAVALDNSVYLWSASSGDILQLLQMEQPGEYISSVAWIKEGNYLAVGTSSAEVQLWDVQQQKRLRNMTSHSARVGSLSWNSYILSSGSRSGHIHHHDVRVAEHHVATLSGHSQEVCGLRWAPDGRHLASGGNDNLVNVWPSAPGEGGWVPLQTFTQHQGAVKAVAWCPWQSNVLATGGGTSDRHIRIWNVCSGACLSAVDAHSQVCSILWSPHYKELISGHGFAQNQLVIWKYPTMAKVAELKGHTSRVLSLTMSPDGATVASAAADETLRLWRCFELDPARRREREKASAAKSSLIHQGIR

Mad2 = Mad2 (UniProt Q13257); assay: as above; conditions: mitotic Flp-In T-REx cell lines; mean of two independent experiments; parent: 1.0; read off a plot
Mad2, sequence (Q13257 whole entry): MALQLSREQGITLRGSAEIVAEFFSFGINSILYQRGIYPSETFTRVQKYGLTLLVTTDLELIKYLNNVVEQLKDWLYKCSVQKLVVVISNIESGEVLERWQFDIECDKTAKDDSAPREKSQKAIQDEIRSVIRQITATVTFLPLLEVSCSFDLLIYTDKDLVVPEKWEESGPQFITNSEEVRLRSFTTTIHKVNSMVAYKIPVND

Bub3 = Bub3 (UniProt O43684); assay: as above; conditions: mitotic Flp-In T-REx cell lines; mean of two independent experiments; parent: 1.0; read off a plot
Bub3, sequence (O43684 whole entry): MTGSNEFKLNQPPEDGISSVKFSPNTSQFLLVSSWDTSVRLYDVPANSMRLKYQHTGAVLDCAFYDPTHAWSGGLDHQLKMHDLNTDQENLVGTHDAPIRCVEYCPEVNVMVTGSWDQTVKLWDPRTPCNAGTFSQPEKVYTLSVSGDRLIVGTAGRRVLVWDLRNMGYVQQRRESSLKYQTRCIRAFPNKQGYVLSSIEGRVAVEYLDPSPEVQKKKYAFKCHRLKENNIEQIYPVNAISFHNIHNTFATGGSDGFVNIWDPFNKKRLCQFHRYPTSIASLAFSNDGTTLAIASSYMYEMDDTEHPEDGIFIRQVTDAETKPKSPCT

Apc7 = assay: as above; conditions: mitotic Flp-In T-REx cell lines; mean of two independent experiments; parent: 1.0; read off a plot
H6-Bub1^209–409-MBP/Bub3 = target: T1, H6-Bub1^209–409-MBP/Bub3 (human | , UniProt O43683 209-409; O43684 1-328); assay: SEC; mobility shift; proteins at 15 µM, 1 hr at 20–22°C in 50 mM Tris–HCl pH 8, 150 mM KCl, 1.5 mM TCEP, 0.05% Tween20; Superose6 10/300; SDS-PAGE of fractions; conditions: both partners purified
T1 construct: Bub3, untagged, co-expressed; source: insect cells, co-expressed, purified (TALON, SEC); not shown: H6, N-terminal, kept; MBP, C-terminal, kept
T1 sequence (O43683 209-409, chain 1 of 2): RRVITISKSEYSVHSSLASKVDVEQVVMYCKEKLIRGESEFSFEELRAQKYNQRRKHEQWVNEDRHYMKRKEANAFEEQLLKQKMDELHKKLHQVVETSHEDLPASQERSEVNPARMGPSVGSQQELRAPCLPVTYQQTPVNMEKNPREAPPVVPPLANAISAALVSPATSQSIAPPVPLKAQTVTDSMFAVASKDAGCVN
T1 sequence (O43684 whole entry, chain 2 of 2): as the sequence (O43684 whole entry) above

H6-Bub1^1–409/Bub3 = target: T2, H6-Bub1^1–409/Bub3 (human | , UniProt O43683 1-409; O43684 1-328); assay: as above; conditions: both partners purified
T2 construct: Bub3, co-expressed, untagged or as Bub3-TRX; source: insect cells, co-infection and co-expression, purified (HisTrap, S200 SEC); not shown: H6, N-terminal, kept
T2 sequence (O43683 1-409, chain 1 of 2): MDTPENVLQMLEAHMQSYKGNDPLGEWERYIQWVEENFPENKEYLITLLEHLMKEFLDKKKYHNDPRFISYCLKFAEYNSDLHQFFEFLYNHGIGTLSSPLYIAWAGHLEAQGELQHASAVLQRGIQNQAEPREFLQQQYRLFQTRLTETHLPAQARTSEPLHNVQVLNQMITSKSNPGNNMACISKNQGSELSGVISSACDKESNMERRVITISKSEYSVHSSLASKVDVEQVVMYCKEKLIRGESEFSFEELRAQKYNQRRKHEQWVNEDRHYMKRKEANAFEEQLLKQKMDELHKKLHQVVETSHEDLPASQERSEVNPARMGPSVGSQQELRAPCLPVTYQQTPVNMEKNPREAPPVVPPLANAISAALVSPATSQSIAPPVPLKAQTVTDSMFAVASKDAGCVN
T2 sequence (O43684 whole entry, chain 2 of 2): as the sequence (O43684 whole entry) above

Molecule	ratio to parent [1]	ratio to parent (Cdc27)	ratio to parent (Cdc20)	ratio to parent (Mad2)	ratio to parent (Bub3)	ratio to parent (Apc7)	binding result (H6-Bub1^209–409-MBP/Bub3)	binding result (H6-Bub1^1–409/Bub3)
GFP-BubR1 wild type, full length (from UniProt O60566) B1-loop	0.15	0.06	0.12	0.12	1.1	0.08		
B1							binds	binds
